Experimental data as given in publication PMC3293223 (Biochemistry, 2012).

B1: N-terminally truncated APE1 including only Cys 99 with all other Cys residues mutated to Ala (40APE1 C99) (domain or fragment, human, UniProt P27695 41-318, looked up)
chain: GPALYEDPPDQKTSPSGKPATLKIASWNVDGLRAWIKKKGLDWVKEEAPDILALQETKCSENKLPAELQELPGLSHQYWSAPSDKEGYSGVGLLSRQAPLKVSYGIGDEEHDQEGRVIVAEFDSFVLVTAYVPNAGRGLVRLEYRQRWDEAFRKFLKGLASRKPLVLAGDLNVAHEEIDLRNPKGNKKNAGFTPQERQGFGELLQAVPLADSFRHLYPNTPYAYTFWTYMMNARSKNVGWRLDYFLLSHSLLPALADSKIRSKALGSDHAPITLYLAL
modifications: Cys 99 oxidised with 1 mM diamide before the reaction with TRXC32

How the values were obtained:
[1] = target: thioredoxin mutant including only C32 (TRXC32) (UniProt P10599); assay: cross-linking
SEC = target: the molecule itself; assay: SEC

Row | Molecule | stoichiometry N [1] | binding result (SEC)
1 | thioredoxin mutant including only C32 (TRXC32) (from UniProt P10599 1-105) (enzyme) | 2 | 
2 | B1 |  | binds
